The subject of the data set is Escherichia coli TOP10. The data set is described as follows: shrunken log2 fold change of peptide-encoding DNA abundance (4.5 h post-induction vs induction); higher = less antimicrobial activity (less host growth inhibition). The conditions noted are these: time post-induction: 4.5 h; library: site-saturation at positions 5, 18, 19, 20.
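Also: peptides expressed intracellularly from a pBAD plasmid library in pooled LB shake-flask culture, induced with 0.3% L-arabinose, DNA abundance read by NGS, three biological replicates, DESeq2 with apeglm shrinkage.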

Consider RRIRPRPPRLPRPRPRPYPMPRP, for which the “shrunken log2 fold change” value is -0.0996.

Regarding RRIRVRPPRLPRPRPRPTAHPRP, the “shrunken log2 fold change” value is 0.246.

As to RRIRYRPPRLPRPRPRPFCWPRP, the “shrunken log2 fold change” value is -0.212.

As for RRIRPRPPRLPRPRPRPEQGPRP, the “shrunken log2 fold change” value was -0.178.

As for RRIRARPPRLPRPRPRPHCYPRP, the “shrunken log2 fold change” value is 0.101.

In the case of RRIRCRPPRLPRPRPRPQHPPRP, the “shrunken log2 fold change” value was -0.132.

RRIRGRPPRLPRPRPRPVNMPRP: the “shrunken log2 fold change” value was 0.189.

With RRIRVRPPRLPRPRPRPTEKPRP, the “shrunken log2 fold change” value is -0.0708.

As to RRIRERPPRLPRPRPRPSFVPRP, the “shrunken log2 fold change” value is -0.588.

As to RRIRNRPPRLPRPRPRPQWFPRP, the “shrunken log2 fold change” value is -0.0391.

On to RRIRHRPPRLPRPRPRPNYNPRP, for which the “shrunken log2 fold change” value is -0.89.

Consider RRIRLRPPRLPRPRPRPFMTPRP, for which the “shrunken log2 fold change” value is -0.824.

With RRIRFRPPRLPRPRPRPNIPPRP, the “shrunken log2 fold change” value is -0.67.

Take RRIRPRPPRLPRPRPRPCLCPRP: the “shrunken log2 fold change” value is -0.222.

As to RRIRPRPPRLPRPRPRPDHTPRP, the “shrunken log2 fold change” value was found to be 0.0191.

For RRIRDRPPRLPRPRPRPWNNPRP, the “shrunken log2 fold change” value was -0.0248.

Turning to RRIRDRPPRLPRPRPRPSMLPRP, the “shrunken log2 fold change” value is -0.244.

Take RRIRYRPPRLPRPRPRPKRPPRP: the “shrunken log2 fold change” value worked out at 0.45.

As for RRIRVRPPRLPRPRPRPKTPPRP, the “shrunken log2 fold change” value was determined as 0.334.

With RRIRERPPRLPRPRPRPVNSPRP, the “shrunken log2 fold change” value turned out to be 0.0303.

As for RRIRDRPPRLPRPRPRPIEYPRP, the “shrunken log2 fold change” value is -0.029.

With RRIRVRPPRLPRPRPRPPDSPRP, the “shrunken log2 fold change” value is -0.136.

On to RRIRTRPPRLPRPRPRPDYPPRP, for which the “shrunken log2 fold change” value stood at 0.0242.

With RRIRKRPPRLPRPRPRPNNWPRP, the “shrunken log2 fold change” value amounted to 0.42.

Take RRIRQRPPRLPRPRPRPIIPPRP: the “shrunken log2 fold change” value was -0.904.

For the sequence RRIRCRPPRLPRPRPRPRGAPRP, the “shrunken log2 fold change” value came to 0.766.

For RRIRKRPPRLPRPRPRPNFPPRP, the “shrunken log2 fold change” value is 0.117.

In the case of RRIRDRPPRLPRPRPRPYVVPRP, the “shrunken log2 fold change” value was -0.159.

In the case of RRIRKRPPRLPRPRPRPESCPRP, the “shrunken log2 fold change” value was 0.183.

Consider RRIRTRPPRLPRPRPRPILEPRP, for which the “shrunken log2 fold change” value is -0.0122.

For the sequence RRIRARPPRLPRPRPRPWCQPRP, the “shrunken log2 fold change” value was -0.031.

Take RRIRMRPPRLPRPRPRPNMTPRP: the “shrunken log2 fold change” value came out at 0.188.

For RRIRMRPPRLPRPRPRPYYQPRP, the “shrunken log2 fold change” value is -0.856.

As for RRIRGRPPRLPRPRPRPAHWPRP, the “shrunken log2 fold change” value was determined as 0.378.

As to RRIRLRPPRLPRPRPRPTGDPRP, the “shrunken log2 fold change” value was -0.00286.

On to RRIRYRPPRLPRPRPRPIVVPRP, for which the “shrunken log2 fold change” value was -0.414.

Take RRIRTRPPRLPRPRPRPCKYPRP: the “shrunken log2 fold change” value is -0.41.

For the sequence RRIRARPPRLPRPRPRPLHKPRP, the “shrunken log2 fold change” value was determined as 0.408.

On to RRIRPRPPRLPRPRPRPEMPPRP, for which the “shrunken log2 fold change” value came to 0.762.

On to RRIRSRPPRLPRPRPRPVRHPRP, for which the “shrunken log2 fold change” value was -0.0103.

For the sequence RRIRIRPPRLPRPRPRPVGNPRP, the “shrunken log2 fold change” value was 0.00174.

Take RRIRVRPPRLPRPRPRPFEMPRP: the “shrunken log2 fold change” value is -0.572.

With RRIRTRPPRLPRPRPRPPPGPRP, the “shrunken log2 fold change” value came out at 0.668.

Consider RRIRWRPPRLPRPRPRPRFYPRP, for which the “shrunken log2 fold change” value is -0.00432.

With RRIRPRPPRLPRPRPRPTKLPRP, the “shrunken log2 fold change” value was -0.0235.

In the case of RRIRNRPPRLPRPRPRPFVFPRP, the “shrunken log2 fold change” value was -0.0679.

With RRIRVRPPRLPRPRPRPRGYPRP, the “shrunken log2 fold change” value is -0.068.

RRIRLRPPRLPRPRPRPLFYPRP: the “shrunken log2 fold change” value is -0.238.

Consider RRIRCRPPRLPRPRPRPCCCPRP, for which the “shrunken log2 fold change” value was -0.224.

For RRIRERPPRLPRPRPRPPYEPRP, the “shrunken log2 fold change” value was -0.296.

Turning to RRIRSRPPRLPRPRPRPLCFPRP, the “shrunken log2 fold change” value is -0.0528.

On to RRIRARPPRLPRPRPRPDLKPRP, for which the “shrunken log2 fold change” value came out at 0.523.

On to RRIRKRPPRLPRPRPRPICGPRP, for which the “shrunken log2 fold change” value was 0.0699.

With RRIRCRPPRLPRPRPRPHLPPRP, the “shrunken log2 fold change” value was -0.195.

In the case of RRIRARPPRLPRPRPRPTIPPRP, the “shrunken log2 fold change” value came out at 0.132.

For the sequence RRIRIRPPRLPRPRPRPIMLPRP, the “shrunken log2 fold change” value worked out at 0.112.

As to RRIRRRPPRLPRPRPRPWILPRP, the “shrunken log2 fold change” value was -0.0248.

For the sequence RRIRLRPPRLPRPRPRPFIRPRP, the “shrunken log2 fold change” value was -0.245.

Turning to RRIRPRPPRLPRPRPRPNVAPRP, the “shrunken log2 fold change” value is -0.215.

For RRIRYRPPRLPRPRPRPSRGPRP, the “shrunken log2 fold change” value is -0.0776.

As to RRIRMRPPRLPRPRPRPSMLPRP, the “shrunken log2 fold change” value amounted to 0.0158.

For RRIRERPPRLPRPRPRPMYSPRP, the “shrunken log2 fold change” value is -0.552.

Consider RRIRKRPPRLPRPRPRPFITPRP, for which the “shrunken log2 fold change” value was -0.352.

Regarding RRIRGRPPRLPRPRPRPFNPPRP, the “shrunken log2 fold change” value was -0.439.

For the sequence RRIRLRPPRLPRPRPRPLTCPRP, the “shrunken log2 fold change” value was -0.0184.

For the sequence RRIRFRPPRLPRPRPRPHLDPRP, the “shrunken log2 fold change” value was -0.275.

For RRIRIRPPRLPRPRPRPDNPPRP, the “shrunken log2 fold change” value was -0.152.

As to RRIRARPPRLPRPRPRPIHSPRP, the “shrunken log2 fold change” value is -0.184.

With RRIRLRPPRLPRPRPRPYHEPRP, the “shrunken log2 fold change” value was -1.6.

With RRIRIRPPRLPRPRPRPGWWPRP, the “shrunken log2 fold change” value was determined as 0.405.

Consider RRIRDRPPRLPRPRPRPHLGPRP, for which the “shrunken log2 fold change” value is 0.0158.

In the case of RRIRPRPPRLPRPRPRPMAVPRP, the “shrunken log2 fold change” value came to 0.0404.

Consider RRIRGRPPRLPRPRPRPKIMPRP, for which the “shrunken log2 fold change” value is 0.322.

As to RRIRRRPPRLPRPRPRPKGYPRP, the “shrunken log2 fold change” value stood at 0.172.

On to RRIRQRPPRLPRPRPRPMMIPRP, for which the “shrunken log2 fold change” value was -0.0862.

Turning to RRIRVRPPRLPRPRPRPPAQPRP, the “shrunken log2 fold change” value came out at 0.223.

Turning to RRIRKRPPRLPRPRPRPLLPPRP, the “shrunken log2 fold change” value worked out at 0.227.

Turning to RRIRWRPPRLPRPRPRPPGMPRP, the “shrunken log2 fold change” value turned out to be 0.759.

Regarding RRIRGRPPRLPRPRPRPVYFPRP, the “shrunken log2 fold change” value is -0.0244.

Turning to RRIRYRPPRLPRPRPRPMHTPRP, the “shrunken log2 fold change” value was -0.254.

On to RRIRQRPPRLPRPRPRPQRNPRP, for which the “shrunken log2 fold change” value was -0.23.

On to RRIRPRPPRLPRPRPRPPYNPRP, for which the “shrunken log2 fold change” value was -0.495.

With RRIRGRPPRLPRPRPRPVELPRP, the “shrunken log2 fold change” value stood at 0.354.

RRIRIRPPRLPRPRPRPNSAPRP: the “shrunken log2 fold change” value was -0.234.

Take RRIRTRPPRLPRPRPRPLWVPRP: the “shrunken log2 fold change” value is 0.0735.

In the case of RRIRRRPPRLPRPRPRPADWPRP, the “shrunken log2 fold change” value was found to be 0.652.

RRIRNRPPRLPRPRPRPDNSPRP: the “shrunken log2 fold change” value was -0.188.

Regarding RRIRHRPPRLPRPRPRPIFVPRP, the “shrunken log2 fold change” value was -0.358.

RRIRLRPPRLPRPRPRPLRNPRP: the “shrunken log2 fold change” value was determined as 0.737.

Turning to RRIRRRPPRLPRPRPRPPPEPRP, the “shrunken log2 fold change” value came out at 1.37.

With RRIRNRPPRLPRPRPRPRPVPRP, the “shrunken log2 fold change” value stood at 0.303.

Take RRIRGRPPRLPRPRPRPKLRPRP: the “shrunken log2 fold change” value is 0.675.

Turning to RRIRSRPPRLPRPRPRPRHWPRP, the “shrunken log2 fold change” value came out at 0.618.

For RRIRDRPPRLPRPRPRPTSVPRP, the “shrunken log2 fold change” value was -0.0218.

As for RRIRSRPPRLPRPRPRPCASPRP, the “shrunken log2 fold change” value turned out to be 0.121.

For RRIRERPPRLPRPRPRPQPFPRP, the “shrunken log2 fold change” value was found to be 0.217.

For the sequence RRIRRRPPRLPRPRPRPKIDPRP, the “shrunken log2 fold change” value was -0.000206.

As for RRIRCRPPRLPRPRPRPQRFPRP, the “shrunken log2 fold change” value was -0.0259.

As for RRIRARPPRLPRPRPRPREWPRP, the “shrunken log2 fold change” value is -0.0253.

As to RRIRNRPPRLPRPRPRPEFDPRP, the “shrunken log2 fold change” value came to 0.0248.

Consider RRIRLRPPRLPRPRPRPPWYPRP, for which the “shrunken log2 fold change” value was -0.312.

With RRIRKRPPRLPRPRPRPMRHPRP, the “shrunken log2 fold change” value came out at 0.0303.

For RRIRYRPPRLPRPRPRPVSQPRP, the “shrunken log2 fold change” value is -0.303.

Regarding RRIRQRPPRLPRPRPRPVVEPRP, the “shrunken log2 fold change” value is 0.0249.

Turning to RRIRYRPPRLPRPRPRPEHYPRP, the “shrunken log2 fold change” value was -0.126.

For the sequence RRIRFRPPRLPRPRPRPGGMPRP, the “shrunken log2 fold change” value was -0.0381.

Turning to RRIRMRPPRLPRPRPRPILKPRP, the “shrunken log2 fold change” value is -0.206.

On to RRIRPRPPRLPRPRPRPCGTPRP, for which the “shrunken log2 fold change” value turned out to be 0.155.

With RRIRYRPPRLPRPRPRPGFEPRP, the “shrunken log2 fold change” value was -0.127.

Turning to RRIRVRPPRLPRPRPRPRATPRP, the “shrunken log2 fold change” value was 0.114.

Turning to RRIRFRPPRLPRPRPRPNVHPRP, the “shrunken log2 fold change” value was -0.339.

As to RRIRVRPPRLPRPRPRPLGYPRP, the “shrunken log2 fold change” value is -0.0838.

With RRIRHRPPRLPRPRPRPRIPPRP, the “shrunken log2 fold change” value was -0.32.

For RRIRERPPRLPRPRPRPCGIPRP, the “shrunken log2 fold change” value is 0.00383.

For the sequence RRIRGRPPRLPRPRPRPNTNPRP, the “shrunken log2 fold change” value stood at 0.256.

Regarding RRIRNRPPRLPRPRPRPCGQPRP, the “shrunken log2 fold change” value turned out to be 0.0151.

Regarding RRIRKRPPRLPRPRPRPDTYPRP, the “shrunken log2 fold change” value is -0.0205.

For the sequence RRIRERPPRLPRPRPRPAKAPRP, the “shrunken log2 fold change” value stood at 0.0877.

In the case of RRIRVRPPRLPRPRPRPLWLPRP, the “shrunken log2 fold change” value is -0.00434.

As for RRIRVRPPRLPRPRPRPFERPRP, the “shrunken log2 fold change” value amounted to 0.0254.

For the sequence RRIRYRPPRLPRPRPRPNCGPRP, the “shrunken log2 fold change” value was -0.00237.

In the case of RRIRMRPPRLPRPRPRPAQHPRP, the “shrunken log2 fold change” value was 0.0457.

In the case of RRIRMRPPRLPRPRPRPKVSPRP, the “shrunken log2 fold change” value was 0.0176.

Take RRIRDRPPRLPRPRPRPRKIPRP: the “shrunken log2 fold change” value turned out to be 0.0843.

Take RRIRPRPPRLPRPRPRPHDPPRP: the “shrunken log2 fold change” value was 0.192.

The values above are taken from the supplement of paper PMC9112550, “Optimization of the antimicrobial peptide Bac7 by deep mutational scanning” (BMC Biology, 2022).
